Assay results from PMC9023283.

Biological target: mature METTL8-Iso1 (Met1-Gln22 deleted) with a C-terminal His6 tag (human)
Assay: SEC

mature METTL8-Iso1 (Met1-Gln22 deleted) with a C-terminal His6 tag (enzyme)
stoichiometry N: 8
